Assay results reported in paper doi:10.1101/2021.01.13.426511.

Molecular target: phospho His-cSrcKD-K295M/Y416F (human)
Assay: BLI

| Kd [µM] | kon [M⁻¹ s⁻¹] | Substance |
| --- | --- | --- |
| 34 | 998 | rPTPεD1-C335S (D1 domain of receptor protein tyrosine phosphatase epsilon, substrate-trapping mutant) (domain or fragment) |
| 257 | 128 | rPTPεD1-C335S/R220E (domain or fragment) |
